From PMC6684648

Target: human IGF2R extra-cellular domains 1-15 I1572A fused at the C-terminal to rat CD4 (domains 3 + 4), biotin acceptor domain and histidine tag (human) (UniProt P11717)
Assay: SPR; BIAcore T200; about 1800 RU of biotinylated CD4-IGF2R fusion protein immobilised on a CM5 chip loaded with streptavidin; IGF2 256 to 0.125 nM injected for 200 s, 25 °C, 40 μl/min, HBS-EP; 1:1 binding model and steady state analysis

human IGF2R extra-cellular domains 1-15 I1572A fused at the C-terminal to rat CD4 (domains 3 + 4), biotin acceptor domain and histidine tag (human), sequence (P11717 41-2304 I1572A): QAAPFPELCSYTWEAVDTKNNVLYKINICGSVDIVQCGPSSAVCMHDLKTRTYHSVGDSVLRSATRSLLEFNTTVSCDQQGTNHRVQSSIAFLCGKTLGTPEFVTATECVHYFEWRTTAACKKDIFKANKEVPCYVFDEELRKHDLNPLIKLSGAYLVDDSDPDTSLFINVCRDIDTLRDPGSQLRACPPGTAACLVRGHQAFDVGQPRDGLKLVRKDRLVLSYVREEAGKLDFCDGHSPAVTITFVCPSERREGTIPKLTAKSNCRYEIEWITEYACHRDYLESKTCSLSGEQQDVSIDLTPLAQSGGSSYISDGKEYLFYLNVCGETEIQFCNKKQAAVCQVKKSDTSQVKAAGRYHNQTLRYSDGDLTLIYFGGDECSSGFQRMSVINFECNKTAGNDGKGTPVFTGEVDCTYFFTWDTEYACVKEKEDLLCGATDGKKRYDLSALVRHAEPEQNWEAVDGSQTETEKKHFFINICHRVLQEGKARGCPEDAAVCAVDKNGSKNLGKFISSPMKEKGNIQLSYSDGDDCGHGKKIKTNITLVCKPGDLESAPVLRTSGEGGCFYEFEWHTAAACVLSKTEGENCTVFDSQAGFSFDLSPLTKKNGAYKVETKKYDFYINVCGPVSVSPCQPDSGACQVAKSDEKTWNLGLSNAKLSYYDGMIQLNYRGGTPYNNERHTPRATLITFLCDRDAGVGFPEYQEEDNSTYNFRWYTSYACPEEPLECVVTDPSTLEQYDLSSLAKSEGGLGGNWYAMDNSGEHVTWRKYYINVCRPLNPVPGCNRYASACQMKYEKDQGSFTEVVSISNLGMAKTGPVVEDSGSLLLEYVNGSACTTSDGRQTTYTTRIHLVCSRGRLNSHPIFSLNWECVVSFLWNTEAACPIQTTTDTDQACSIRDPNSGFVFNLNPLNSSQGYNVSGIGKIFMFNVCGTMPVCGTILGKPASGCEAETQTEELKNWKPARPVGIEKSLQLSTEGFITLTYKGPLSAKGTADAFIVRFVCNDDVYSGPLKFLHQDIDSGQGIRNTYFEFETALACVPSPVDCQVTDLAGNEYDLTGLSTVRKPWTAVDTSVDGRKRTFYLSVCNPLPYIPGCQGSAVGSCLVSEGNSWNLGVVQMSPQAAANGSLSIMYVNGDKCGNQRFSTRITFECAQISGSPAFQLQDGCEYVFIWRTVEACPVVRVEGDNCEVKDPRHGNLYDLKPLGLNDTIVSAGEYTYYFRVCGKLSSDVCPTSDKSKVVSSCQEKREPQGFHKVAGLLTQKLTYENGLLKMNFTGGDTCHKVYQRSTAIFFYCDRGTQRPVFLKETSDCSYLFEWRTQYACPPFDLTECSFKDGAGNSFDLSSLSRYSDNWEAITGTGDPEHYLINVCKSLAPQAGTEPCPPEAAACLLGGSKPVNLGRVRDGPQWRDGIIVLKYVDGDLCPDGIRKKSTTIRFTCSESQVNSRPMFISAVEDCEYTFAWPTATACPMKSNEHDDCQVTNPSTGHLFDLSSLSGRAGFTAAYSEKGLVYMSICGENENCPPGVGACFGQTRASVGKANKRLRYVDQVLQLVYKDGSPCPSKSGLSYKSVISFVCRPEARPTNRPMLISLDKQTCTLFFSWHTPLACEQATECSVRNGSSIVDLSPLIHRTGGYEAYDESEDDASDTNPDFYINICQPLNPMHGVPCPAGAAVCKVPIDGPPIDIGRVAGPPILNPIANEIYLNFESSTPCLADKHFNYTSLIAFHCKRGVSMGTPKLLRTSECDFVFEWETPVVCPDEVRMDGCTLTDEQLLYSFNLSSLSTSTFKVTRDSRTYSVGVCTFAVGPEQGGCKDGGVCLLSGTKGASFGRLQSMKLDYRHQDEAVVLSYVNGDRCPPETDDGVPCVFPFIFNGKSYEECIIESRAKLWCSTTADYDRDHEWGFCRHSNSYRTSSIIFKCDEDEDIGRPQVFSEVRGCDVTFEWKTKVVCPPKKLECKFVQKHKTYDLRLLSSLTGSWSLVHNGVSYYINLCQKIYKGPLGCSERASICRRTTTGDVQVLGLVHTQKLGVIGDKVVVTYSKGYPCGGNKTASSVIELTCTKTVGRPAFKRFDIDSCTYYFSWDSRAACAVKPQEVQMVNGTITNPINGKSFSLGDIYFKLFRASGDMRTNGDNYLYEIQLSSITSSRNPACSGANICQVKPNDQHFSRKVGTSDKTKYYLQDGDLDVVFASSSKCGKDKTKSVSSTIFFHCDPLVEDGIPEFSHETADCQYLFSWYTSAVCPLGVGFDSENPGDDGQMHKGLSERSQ

fold reduction of IGF2 binding against wild type: 100 fold
Substance: human IGF2 (ligand)
